Measured values taken from patent publication US20250304927A1, “PRO-PEPTIDE VARIANTS FOR MODULATING ACTIVITY OF TRANSGLUTAMINASES” (CURIE CO. INC., priority 2022, published 2025).

T1: thermostable variant of Streptomyces mobaraensis transglutaminase (Streptomyces mobaraensis, UniProt P81453 79-407)
T1 sequence: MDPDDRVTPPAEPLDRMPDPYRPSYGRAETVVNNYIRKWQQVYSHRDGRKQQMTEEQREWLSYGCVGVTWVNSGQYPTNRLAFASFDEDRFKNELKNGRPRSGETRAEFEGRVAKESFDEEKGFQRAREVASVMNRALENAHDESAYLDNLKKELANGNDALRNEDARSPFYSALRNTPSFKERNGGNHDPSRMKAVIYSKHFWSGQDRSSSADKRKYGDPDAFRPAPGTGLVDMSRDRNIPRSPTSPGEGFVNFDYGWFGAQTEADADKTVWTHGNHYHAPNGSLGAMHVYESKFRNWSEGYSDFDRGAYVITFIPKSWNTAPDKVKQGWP


Legend:
[1] = target: T1, thermostable variant of Streptomyces …; assay: cell-based or functional assay
[2] = target: T1, thermostable variant of Streptomyces …; assay: cell-based or functional assay; remark: listed apart in the source

Row | Improvement in binding affinity of inhibitory peptide relative to WT [1] | Improvement in pH responsiveness of inhibitory peptide relative to WT [2] | Binder
1 | > 1.2 fold | > 1.2 fold | MDNGAGCETKSYAETYRLTADDVANINALNESAPAASSAGPSFRAP [pro-peptide variant E7C]
2 | > 1.2 fold | > 1.2 fold | MDNGAGLETKSYAETYRLTADDVANINALNESAPAASSAGPSFRAP [pro-peptide variant E7L]
3 | > 1.2 fold | > 1.2 fold | MDNGAGTETKSYAETYRLTADDVANINALNESAPAASSAGPSFRAP [pro-peptide variant E7T]
4 | > 1.2 fold | > 5 fold | MDNGAGVETKSYAETYRLTADDVANINALNESAPAASSAGPSFRAP [pro-peptide variant E7V]
5 | > 1.2 fold | > 1.2 fold | MDNGAGECTKSYAETYRLTADDVANINALNESAPAASSAGPSFRAP [pro-peptide variant E8C]
6 | > 1.2 fold | > 1.2 fold | MDNGAGELTKSYAETYRLTADDVANINALNESAPAASSAGPSFRAP [pro-peptide variant E8L]
7 | > 1.2 fold | > 1.2 fold | MDNGAGENTKSYAETYRLTADDVANINALNESAPAASSAGPSFRAP [pro-peptide variant E8N]
8 | > 1.2 fold | > 5 fold | MDNGAGEQTKSYAETYRLTADDVANINALNESAPAASSAGPSFRAP [pro-peptide variant E8Q]
9 | > 1.2 fold | > 1.2 fold | MDNGAGERTKSYAETYRLTADDVANINALNESAPAASSAGPSFRAP [pro-peptide variant E8R]
10 | > 1.2 fold | > 1.2 fold | MDNGAGETTKSYAETYRLTADDVANINALNESAPAASSAGPSFRAP [pro-peptide variant E8T]
11 | > 1.2 fold | > 1.2 fold | MDNGAGEEAKSYAETYRLTADDVANINALNESAPAASSAGPSFRAP [pro-peptide variant T9A]
12 | > 1.2 fold | > 1.2 fold | MDNGAGEEGKSYAETYRLTADDVANINALNESAPAASSAGPSFRAP [pro-peptide variant T9G]
13 | > 1.2 fold | > 1.2 fold | MDNGAGEEHKSYAETYRLTADDVANINALNESAPAASSAGPSFRAP [pro-peptide variant T9H]
14 | > 1.2 fold | > 1.2 fold | MDNGAGEEKKSYAETYRLTADDVANINALNESAPAASSAGPSFRAP [pro-peptide variant T9K]
15 | > 1.2 fold | > 1.2 fold | MDNGAGEELKSYAETYRLTADDVANINALNESAPAASSAGPSFRAP [pro-peptide variant T9L]
16 | > 1.2 fold | > 1.2 fold | MDNGAGEERKSYAETYRLTADDVANINALNESAPAASSAGPSFRAP [pro-peptide variant T9R]
17 | > 1.2 fold | > 1.2 fold | MDNGAGEEVKSYAETYRLTADDVANINALNESAPAASSAGPSFRAP [pro-peptide variant T9V]
18 | > 1.2 fold | > 1.2 fold | MDNGAGEEWKSYAETYRLTADDVANINALNESAPAASSAGPSFRAP [pro-peptide variant T9W]

Row | Improvement in binding affinity of inhibitory peptide relative to WT [1] | Improvement in pH responsiveness of inhibitory peptide relative to WT [2] | Binder
19 | > 1.2 fold | > 1.2 fold | MDNGAGEEYKSYAETYRLTADDVANINALNESAPAASSAGPSFRAP [pro-peptide variant T9Y]
20 | > 1.2 fold | > 1.2 fold | MDNGAGEETKSYAQTYRLTADDVANINALNESAPAASSAGPSFRAP [pro-peptide variant E14Q]
21 | > 1.2 fold | > 5 fold | MDNGAGEETKSYASTYRLTADDVANINALNESAPAASSAGPSFRAP [pro-peptide variant E14S]
22 | > 1.2 fold | > 1.2 fold | MDNGAGEETKSYAEDYRLTADDVANINALNESAPAASSAGPSFRAP [pro-peptide variant T15D]
23 | > 1.2 fold | > 1.2 fold | MDNGAGEETKSYAEVYRLTADDVANINALNESAPAASSAGPSFRAP [pro-peptide variant T15V]
24 | > 1.2 fold | > 1.2 fold | MDNGAGEETKSYAETYRITADDVANINALNESAPAASSAGPSFRAP [pro-peptide variant L18I]
25 | > 1.2 fold | > 1.2 fold | MDNGAGEETKSYAETYRLTACDVANINALNESAPAASSAGPSFRAP [pro-peptide variant D21C]
26 | > 1.2 fold | > 1.2 fold | MDNGAGEETKSYAETYRLTAFDVANINALNESAPAASSAGPSFRAP [pro-peptide variant D21F]
27 | > 1.2 fold | > 5 fold | MDNGAGEETKSYAETYRLTAMDVANINALNESAPAASSAGPSFRAP [pro-peptide variant D21M]
28 | > 1.2 fold | > 1.2 fold | MDNGAGEETKSYAETYRLTASDVANINALNESAPAASSAGPSFRAP [pro-peptide variant D21S]
29 | > 1.2 fold | > 1.2 fold | MDNGAGEETKSYAETYRLTAVDVANINALNESAPAASSAGPSFRAP [pro-peptide variant D21V]
30 | > 1.2 fold | > 1.2 fold | MDNGAGEETKSYAETYRLTADAVANINALNESAPAASSAGPSFRAP [pro-peptide variant D22A]
31 | > 1.2 fold | > 5 fold | MDNGAGEETKSYAETYRLTADDVVNINALNESAPAASSAGPSFRAP [pro-peptide variant A24V]
32 | > 1.2 fold | > 1.2 fold | MDNGAGEETKSYAETYRLTADDVANINALNESAPAASFAGPSFRAP [pro-peptide variant S38F]
33 | > 1.2 fold | > 1.2 fold | MDNGAGEETKSYAETYRLTADDVANINALNESAPAASHAGPSFRAP [pro-peptide variant S38H]
34 | > 1.2 fold | > 1.2 fold | MDNGAGEETKSYAETYRLTADDVANINALNESAPAASTAGPSFRAP [pro-peptide variant S38T]
35 | > 1.2 fold | > 1.2 fold | MDNGAGEETKSYAETYRLTADDVANINALNESAPAASVAGPSFRAP [pro-peptide variant S38V]
36 | > 1.2 fold | > 1.2 fold | MDNGAGEETKSYAETYRLTADDVANINALNESAPAASSAGPSFRAA [pro-peptide variant P46A]
